According to patent publication US7256007B2, “Methods of regulating cytokine signalling” (The Walter and Eliza Hall Institute of Medical Research, priority 2000, dated 2007):
Square brackets hold non-standard residues; d marks the D form. Ends that are not written are not given here. pY = N[C@@H](Cc1ccc(OP(=O)(O)O)cc1)C(=O)O

T1: SOCS-3 (Mus musculus, UniProt O35718)
T1 construct: hexahistidine (pET15b) (N); made in house; host or cells: E. coli BL21 DE3 pLysS
T1 sequence (O35718 1-225): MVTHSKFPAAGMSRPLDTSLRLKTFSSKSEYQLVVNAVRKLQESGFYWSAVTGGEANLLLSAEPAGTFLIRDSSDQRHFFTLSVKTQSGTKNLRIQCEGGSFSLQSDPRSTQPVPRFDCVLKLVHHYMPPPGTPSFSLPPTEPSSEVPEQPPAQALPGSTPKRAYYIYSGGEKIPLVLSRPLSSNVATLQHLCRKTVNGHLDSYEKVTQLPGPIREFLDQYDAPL

T2: gp130(674-688) pY681 control phosphopeptide (mouse, not fully specified (N-terminus); printed as FNSKDQM(pY)SDGNFTD; also: biotinylated, site not given here)
T2 chain: FNSKDQM[pY]SDGNFTD-NH2

B1: STASTVE(pY)STVVH (peptide)
chain: STASTVE[pY]STVVH-NH2
modifications: N-terminus assumed
SMILES: CC(C)[C@H](NC(=O)[C@@H](NC(=O)[C@@H](NC(=O)[C@H](CO)NC(=O)[C@H](Cc1ccc(OP(=O)(O)O)cc1)NC(=O)[C@H](CCC(=O)O)NC(=O)[C@@H](NC(=O)[C@@H](NC(=O)[C@H](CO)NC(=O)[C@H](C)NC(=O)[C@@H](NC(=O)[C@@H](N)CO)[C@@H](C)O)[C@@H](C)O)C(C)C)[C@@H](C)O)C(C)C)C(=O)N[C@@H](Cc1c[nH]cn1)C(N)=O
B2: STASTVE(pY)STVVHS (peptide)
chain: STASTVE[pY]STVVHS-NH2
modifications: N-terminus assumed
SMILES: CC(C)[C@H](NC(=O)[C@@H](NC(=O)[C@@H](NC(=O)[C@H](CO)NC(=O)[C@H](Cc1ccc(OP(=O)(O)O)cc1)NC(=O)[C@H](CCC(=O)O)NC(=O)[C@@H](NC(=O)[C@@H](NC(=O)[C@H](CO)NC(=O)[C@H](C)NC(=O)[C@@H](NC(=O)[C@@H](N)CO)[C@@H](C)O)[C@@H](C)O)C(C)C)[C@@H](C)O)C(C)C)C(=O)N[C@@H](Cc1c[nH]cn1)C(=O)N[C@@H](CO)C(N)=O
B3: gp130 phosphopeptide V11A (peptide)
chain: STASTVE[pY]STAVHSG-NH2
modifications: N-terminus assumed
SMILES: CC(C)[C@H](NC(=O)[C@H](C)NC(=O)[C@@H](NC(=O)[C@H](CO)NC(=O)[C@H](Cc1ccc(OP(=O)(O)O)cc1)NC(=O)[C@H](CCC(=O)O)NC(=O)[C@@H](NC(=O)[C@@H](NC(=O)[C@H](CO)NC(=O)[C@H](C)NC(=O)[C@@H](NC(=O)[C@@H](N)CO)[C@@H](C)O)[C@@H](C)O)C(C)C)[C@@H](C)O)C(=O)N[C@@H](Cc1c[nH]cn1)C(=O)N[C@@H](CO)C(=O)NCC(N)=O
B4: gp130 phosphopeptide S9A (peptide)
chain: STASTVE[pY]ATVVHSG-NH2
modifications: N-terminus assumed
SMILES: CC(C)[C@H](NC(=O)[C@@H](NC(=O)[C@@H](NC(=O)[C@H](C)NC(=O)[C@H](Cc1ccc(OP(=O)(O)O)cc1)NC(=O)[C@H](CCC(=O)O)NC(=O)[C@@H](NC(=O)[C@@H](NC(=O)[C@H](CO)NC(=O)[C@H](C)NC(=O)[C@@H](NC(=O)[C@@H](N)CO)[C@@H](C)O)[C@@H](C)O)C(C)C)[C@@H](C)O)C(C)C)C(=O)N[C@@H](Cc1c[nH]cn1)C(=O)N[C@@H](CO)C(=O)NCC(N)=O
B5: SOCS-3 (recombinant, His-tagged) (protein)
chain: T1 sequence (O35718 1-225)
B6: AcAE(pY)STVVHSG (peptide)
chain: Ac-AE[pY]STVVHSG-NH2
SMILES: CC(=O)N[C@@H](C)C(=O)N[C@@H](CCC(=O)O)C(=O)N[C@@H](Cc1ccc(OP(=O)(O)O)cc1)C(=O)N[C@@H](CO)C(=O)N[C@H](C(=O)N[C@H](C(=O)N[C@H](C(=O)N[C@@H](Cc1c[nH]cn1)C(=O)N[C@@H](CO)C(=O)NCC(N)=O)C(C)C)C(C)C)[C@@H](C)O

Key:
EPOR/gp130Y757F = experiment: APRE-luc luciferase reporter assay in transiently transfected 293T cells, EPO stimulated; assay type: cell-based; conditions: gp130 cytoplasmic domain with Y757F mutation, 10U/ml EPO overnight
Chain of EPOR/gp130Y757F (Q00560 640-917 Y757F limits assumed): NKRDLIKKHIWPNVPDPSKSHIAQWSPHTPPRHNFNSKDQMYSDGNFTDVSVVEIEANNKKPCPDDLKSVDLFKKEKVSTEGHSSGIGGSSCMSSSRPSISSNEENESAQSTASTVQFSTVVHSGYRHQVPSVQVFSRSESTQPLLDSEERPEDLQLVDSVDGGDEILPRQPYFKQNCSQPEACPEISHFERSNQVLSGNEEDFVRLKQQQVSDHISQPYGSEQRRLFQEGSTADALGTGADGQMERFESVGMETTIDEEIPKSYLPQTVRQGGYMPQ
Procedure: Generation of the expression vectors for SOCS-1 and SOCS-3, luciferase assays and Western blot analysis have been described previously (Nicholson et al., 1999). Briefly, 293T cells were transiently transfected with SOCS expression plasmids, a LIF-responsive reporter construct (APRE-luc; Endo et al., 1997) and a β-galactosidase reporter construct under a constitutive promoter (Srα-β-gal; Ogilvy et al., 1998). Luciferase activity from triplicate samples was determined and normalized against β-galactosidase activity.
It was therefore important to confirm these findings using a biological assay. A chimeric receptor was created that contained the erythropoietin receptor (EPOR) extracellular domain and the gp130 cytoplasmic domain (EPOR/gp130). A second receptor was created containing the EPO receptor extracellular domain and the gp130 cytoplasmic domain in which tyrosine 757 had been mutated to phenylalanine (EPOR/gp130Y757F). 293T cells were transiently transfected with cDNAs expressing the receptor constructs and either SOCS-3 or SOCS-1 in the presence of the APRE-luc and Srα-β-gal reporter genes. Cells were then incubated in the presence of 10U/ml EPO overnight and luciferase activity determined. Mutation of Y757 in the gp130 cytoplasmic domain has been reported to result in a hyperactive receptor complex, presumably from the loss of a negative regulator such as SHP-2. […]

SOCS-3 = biological target: T1, SOCS-3; experiment: Biosensor (SPR) analysis of recombinant SOCS-3 binding to immobilized biotinylated phosphopeptide; design: species or system murine; conditions: non-specific control channel on the same chip
Procedure: Purified protein was refolded by dialysis into PBS containing 2 mM DTT, 2 mM EDTA and 0.02% v/v Tween 20. Refolded material was purified to homogeneity by ion exchange chromatography on a Mono S column (Pharmacia).
Phosphopeptides containing an N-terminal biotin moiety were immobilized onto a streptavidin-coated Biosensor chip (Pharmacia) at a density of ˜200 Resonance Units (Rus). […] Binding profiles were analyzed using the BIAevaluation software version 3.0 (Pharmacia).

[1] = biological target: B5; experiment: competition, SPR
[2] = biological target: T2, gp130(674-688) pY681 control …; experiment: SPR

Molecule | IC50 [1] [nM] | other results
SOCS-3: suppressor of cytokine signaling 3, expressed from transfected cDNA in 293T cells | – | SOCS-3 DNA giving 50% inhibition of luciferase activity (EPOR/gp130Y757F): 54 ng
FNSKDQM(pY)SDGNFTD (FNSKDQM[pY]SDGNFTD-NH2; N-terminus assumed; SMILES CSCC[C@H](NC(=O)[C@H](CCC(N)=O)NC(=O)[C@H](CC(=O)O)NC(=O)[C@H](CCCCN)NC(=O)[C@H](CO)NC(=O)[C@H](CC(N)=O)NC(=O)[C@@H](N)Cc1ccccc1)C(=O)N[C@@H](Cc1ccc(OP(=O)(O)O)cc1)C(=O)N[C@@H](CO)C(=O)N[C@@H](CC(=O)O)C(=O)NCC(=O)N[C@@H](CC(N)=O)C(=O)N[C@@H](Cc1ccccc1)C(=O)N[C@H](C(=O)N[C@@H](CC(=O)O)C(N)=O)[C@@H](C)O) [gp30(674-688) phosphopeptide, non-cognate gp130 phosphopeptide immobilized as non-specific control] | – | specific binding of SOCS-3 to immobilized peptide (SOCS-3): no specific binding was detected
B1 | 77 | –
B2 | 61 | –
B3 | 3400 | –
B4 | 72 | –
B5 | – | binding result [2]: no binding
B6 | 580 | –
